Source: patent US20260055182A1 (CIS BIOPHARMA, published 2026)
Residue numbers refer to the chain shown, from its start. Names may count otherwise. Blank lines part the entries; values can stand above or below the binder they belong to.

Columns and labels:
[1] = target: T1, L1-CAM recombinant protein (His Tag), human (human, UniProt P32004 20-1120); test: ELISA, human L1-CAM coated at 2 µg/ml
T1 construct: Bought protein; also called CD171; human L1-CAM; not shown: His tag

[2] = target: T1, L1-CAM recombinant protein (His Tag), …; test: SPR (Biacore 8K); L1-CAM immobilised on CM5 chip, antibody as analyte
Method: (§1) In the SPR experiment, antigen is immobilized on sensor chip and solutions containing antibody at various concentrations are flown over the antigen. real time measurement of kinetics parameters is performed, including their on/off rates (ka and kd). Based thereon, binding affinity constant KD is determined.

[3] = target: T1, L1-CAM recombinant protein (His Tag), …; test: GCI (Creoptix WAVEdelta); antibody captured on protein A/G, L1-CAM as analyte, 1:1 model
[4] = target: T1, L1-CAM recombinant protein (His Tag), …; test: SPR (Biacore 8K); L1-CAM immobilised on CM5 chip, antibody as analyte; remark: listed apart in the source
Method: as §1

[5] = target: T1, L1-CAM recombinant protein (His Tag), …; test: SPR (Biacore 8K) as in Example 6, new batch of L1-CAM on the chip
Method: as §1

T1 sequence (P32004 20-1120 limits assumed): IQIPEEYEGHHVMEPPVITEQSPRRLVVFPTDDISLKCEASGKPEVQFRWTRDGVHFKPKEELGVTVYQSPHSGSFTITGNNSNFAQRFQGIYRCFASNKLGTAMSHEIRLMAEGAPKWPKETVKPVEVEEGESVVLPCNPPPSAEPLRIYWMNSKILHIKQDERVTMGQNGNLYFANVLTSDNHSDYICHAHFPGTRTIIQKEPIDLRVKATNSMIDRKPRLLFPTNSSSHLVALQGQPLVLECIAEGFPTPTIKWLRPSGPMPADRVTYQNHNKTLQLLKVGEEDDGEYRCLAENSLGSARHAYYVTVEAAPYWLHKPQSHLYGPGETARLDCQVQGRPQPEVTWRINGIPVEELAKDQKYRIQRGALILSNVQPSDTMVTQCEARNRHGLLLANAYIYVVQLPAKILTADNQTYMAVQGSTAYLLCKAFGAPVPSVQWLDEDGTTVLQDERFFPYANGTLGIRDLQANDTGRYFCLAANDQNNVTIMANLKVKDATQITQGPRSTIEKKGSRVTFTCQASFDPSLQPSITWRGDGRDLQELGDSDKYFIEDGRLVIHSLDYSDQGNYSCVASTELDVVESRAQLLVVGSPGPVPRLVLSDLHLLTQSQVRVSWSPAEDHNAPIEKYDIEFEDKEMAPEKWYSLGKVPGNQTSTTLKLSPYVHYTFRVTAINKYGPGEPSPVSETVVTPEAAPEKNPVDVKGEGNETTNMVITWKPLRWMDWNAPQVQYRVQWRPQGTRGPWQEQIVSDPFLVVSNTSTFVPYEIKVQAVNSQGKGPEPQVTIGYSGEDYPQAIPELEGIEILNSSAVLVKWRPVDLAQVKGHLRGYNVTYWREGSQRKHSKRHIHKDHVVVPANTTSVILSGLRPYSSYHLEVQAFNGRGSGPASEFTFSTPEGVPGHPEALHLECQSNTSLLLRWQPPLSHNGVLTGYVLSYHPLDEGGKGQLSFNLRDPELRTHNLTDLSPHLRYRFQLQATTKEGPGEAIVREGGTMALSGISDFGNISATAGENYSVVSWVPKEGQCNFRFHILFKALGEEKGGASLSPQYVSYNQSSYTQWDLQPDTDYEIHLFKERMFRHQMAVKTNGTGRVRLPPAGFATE

EC50 [1]: 0.0131 µg/mL | Kd [2]: 0.12 nM | koff [2]: 9.59e-05 s⁻¹ | kon [2]: 806000 M⁻¹ s⁻¹ | Kd [3]: ~4 nM
B1: Deglycosylated cHCE7 (antibody, V domains shown)
VH: QVQLQQPGAELVKPGASVKLSCKASGYTFTGYWMHWVKQRPGHGLEWIGEINPSNGRTNYNERFKSKATLTVDKSSTTAFMQLSGLTSEDSAVYFCARDYYGTSYNFDYWGQGTTLTVSS
VL: DIQMTQSSSSFSVSLGDRVTITCKANEDINNRLAWYQQTPGNSPRLLISGATNLVTGVPSRFSGSGSGKDYTLTITSLQAEDFATYYCQQYWSTPFTFGSGTELEIK
modifications: deglycosylated (so in the source); site and method not stated for this sample
notes: also called cHCE7 degly; cHCE7 deglycosylated

EC50 [1]: 0.0362 µg/mL
B2: LV1 (antibody, V domains shown)
VH: B1 VH with W33Y
VL: DIQMTQSSSSFSVSLGDRVTITCKANEDINNRLAWYQQTPGNSPRLLISGATNLVTGVPSRFSGSGSGKDYTLTITSLQAEDFATYYCQQYWSTPFTFGSGTELEIKR
notes: CE7-VH-chimeric-WH33Y + CE7-VL-chimeric; chimeric CE7, human IgG1 kappa, L234A L235A P331S N297A; also called liability variant 1

EC50 [1]: 0.0459 µg/mL
B3: LV2 (antibody, V domains shown)
VH: B1 VH with W33F
VL: B2 VL
notes: CE7-VH-chimeric-WH33F + CE7-VL-chimeric; chimeric CE7, human IgG1 kappa, L234A L235A P331S N297A; also called liability variant 2

EC50 [1]: 0.0318 µg/mL
B4: LV5 (antibody, V domains shown)
VH: B1 VH
VL: B2 VL with N31L
notes: CE7-VH-chimeric + CE7-VL-chimeric-NL31L; chimeric CE7, human IgG1 kappa, L234A L235A P331S N297A; also called liability variant 5

EC50 [1]: 0.0246 µg/mL
B5: LV7 (antibody, V domains shown)
VH: B1 VH
VL: B2 VL with W92Y
notes: CE7-VH-chimeric + CE7-VL-chimeric-WL92Y; chimeric CE7, human IgG1 kappa, L234A L235A P331S N297A; also called liability variant 7

EC50 [1]: 0.0394 µg/mL
B6: LV4 (antibody, V domains shown)
VH: B1 VH with G56A
VL: B2 VL
notes: CE7-VH-chimeric-GH55A + CE7-VL-chimeric; chimeric CE7, human IgG1 kappa, L234A L235A P331S N297A; also called liability variant 4

EC50 [1]: 0.0268 µg/mL
B7: LV6 (antibody, V domains shown)
VH: B1 VH
VL: B2 VL with N31A
notes: CE7-VH-chimeric + CE7-VL-chimeric-NL31A; chimeric CE7, human IgG1 kappa, L234A L235A P331S N297A; also called liability variant 6

EC50 [1]: 0.0328 µg/mL
B8: LV3 (antibody, V domains shown)
VH: B1 VH with W33L
VL: B2 VL
notes: CE7-VH-chimeric-WH33L + CE7-VL-chimeric; chimeric CE7, human IgG1 kappa, L234A L235A P331S N297A; also called liability variant 3

EC50 [1]: 0.0335 µg/mL
B9: LV8 (antibody, V domains shown)
VH: B1 VH
VL: B2 VL with W92F
notes: CE7-VH-chimeric + CE7-VL-chimeric-WL92F; chimeric CE7, human IgG1 kappa, L234A L235A P331S N297A; also called liability variant 8

Kd [2]: 0.00124 nM | koff [2]: 1.35e-06 s⁻¹ | kon [2]: 1.09e+06 M⁻¹ s⁻¹
B10: CE7-variant18-AG (antibody)
heavy: QVQLQQWGAGLLKPSETLSLTCAAYGYTFTGYWMHWIRQPPGKGLEWIGEINPSNGRTNYNERLKSRVTLSVDKSKNQASLKLSSVTAADTAVYFCARDYYGTSYNFDYWGQGTLVTVSSASTKGPSVFPLAPSSKSTSGGTAALGCLVKDYFPEPVTVSWNSGALTSGVHTFPAVLQSSGLYSLSSVVTVPSSSLGTQTYICNVNHKPSNTKVDKKVEPKSCDKTHTCPPCPAPEAAGGPSVFLFPPKPKDTLMISRTPEVTCVVVDVSHEDPEVKFNWYVDGVEVHNAKTKPREEQYASTYRVVSVLTVLHQDWLNGKEYKCKVSNKALPASIEKTISKAKGQPREPQVYTLPPSREEMTKNQVSLTCLVKGFYPSDIAVEWESNGQPENNYKTTPPVLDSDGSFFLYSKLTVDKSRWQQGNVFSCSVMHEALHNHYTQKSLSLSPGK
light: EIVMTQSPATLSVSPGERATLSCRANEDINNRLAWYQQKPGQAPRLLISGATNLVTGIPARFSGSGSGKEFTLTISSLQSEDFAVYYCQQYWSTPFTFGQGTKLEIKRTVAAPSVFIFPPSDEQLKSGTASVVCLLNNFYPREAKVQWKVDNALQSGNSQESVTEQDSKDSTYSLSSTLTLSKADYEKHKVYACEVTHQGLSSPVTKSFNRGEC
notes: CE7-4-34-VHA (L234A L235A P331S N297A) + CE7-3-15-VLB, aglycosylated human IgG1 kappa; N297 of IgG1 numbering is residue 319 of the entry (QYNST); also called CE7-varant18-AG

Kd [2]: 0.000664 nM | koff [2]: 8.18e-07 s⁻¹ | kon [2]: 1.23e+06 M⁻¹ s⁻¹
B11: CE7-variant4-AG (antibody)
heavy: QVQLVQSGAEVKKPGASVKVSCKASGYTFTGYWMHWVRQAPGQGLEWIGEINPSNGRTNYNERFKSRVTLTVDKSISTAYMELSRLRSDDTAVYFCARDYYGTSYNFDYWGQGTLVTVSSASTKGPSVFPLAPSSKSTSGGTAALGCLVKDYFPEPVTVSWNSGALTSGVHTFPAVLQSSGLYSLSSVVTVPSSSLGTQTYICNVNHKPSNTKVDKKVEPKSCDKTHTCPPCPAPEAAGGPSVFLFPPKPKDTLMISRTPEVTCVVVDVSHEDPEVKFNWYVDGVEVHNAKTKPREEQYASTYRVVSVLTVLHQDWLNGKEYKCKVSNKALPASIEKTISKAKGQPREPQVYTLPPSREEMTKNQVSLTCLVKGFYPSDIAVEWESNGQPENNYKTTPPVLDSDGSFFLYSKLTVDKSRWQQGNVFSCSVMHEALHNHYTQKSLSLSPGK
light: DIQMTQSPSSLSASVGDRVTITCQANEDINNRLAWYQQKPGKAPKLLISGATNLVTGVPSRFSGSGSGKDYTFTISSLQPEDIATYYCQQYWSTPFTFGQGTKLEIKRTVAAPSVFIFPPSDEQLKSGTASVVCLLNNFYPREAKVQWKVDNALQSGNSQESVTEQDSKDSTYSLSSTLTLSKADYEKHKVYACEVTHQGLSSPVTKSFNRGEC
notes: CE7-1-2-VHA (L234A L235A P331S N297A) + CE7-1-33-VLB, aglycosylated human IgG1 kappa; also called CE7-varant4-AG

EC50 [1]: 0.0701 µg/mL | Kd [4]: 0.046 nM | koff [4]: 3.62e-05 s⁻¹ | kon [4]: 787000 M⁻¹ s⁻¹
B12: CE7-variant28 (antibody, V domains shown)
VH: QVQLVQSGAEVKKPGASVKVSCKASGYTFTGYWMHWVRQAPGQGLEWMGEINPSNGRTNYNEKFQGRVTLTVDKSISTAYMELSRLRSDDTAVYYCARDYYGTSYNFDYWGQGTLVTVSS
VL: DIQMTQSPSSLSASVGDRVTITCRASQGINNRLAWYQQKPGKAPKLLISGASNLVSGVPSRFSGSGSGKDYTLTISSLQPEDFATYYCQQYWSTPFTFGQGTKLEIKR
notes: CE7-1-2-VHD + CE7-1-NL1-VLD; human IgG1 kappa, L234A L235A P331S N297A (aglycosylated); also called humanized variant 28

kon [5]: 1.92e+06 M⁻¹ s⁻¹
B13: huCE7 variant LV42 (antibody, human IgG1, kappa, L234A L235A, N297A)
heavy: B11 heavy with K65Q, S66G, F95Y, T310P
light: DIQMTQSPSSLSASVGDRVTITCKANEDINNRLAWYQQKPGKAPKLLISGATNLVTGVPSRFSGSGSGKDYTLTISSLQPEDFATYYCQQYWSTPFTFGQGTKLEIKRTVAAPSVFIFPPSDEQLKSGTASVVCLLNNFYPREAKVQWKVDNALQSGNSQESVTEQDSKDSTYSLSSTLTLSKADYEKHKVYACEVTHQGLSSPVTKSFNRGEC
notes: Variant 7AG with HC TH307P; also called huCE7-variant42

Kd [5]: 0.268 nM | koff [5]: 3.23e-05 s⁻¹ | kon [5]: 121000 M⁻¹ s⁻¹
B14: huCE7 variant LV38 (antibody, human IgG1, kappa, L234A L235A, N297A)
heavy: B11 heavy with W33F, G56A, K65Q, S66G, F95Y, L312D
light: B13 light with N31A, W92Y
notes: Variant 7AG with HC WH33F, GH55A, LH309D and LC NL31A, WL92Y; also called huCE7-variant38

EC50 [1]: 0.0127 µg/mL | Kd [4]: 0.000186 nM | koff [4]: 1.65e-07 s⁻¹ | kon [4]: 891000 M⁻¹ s⁻¹
B15: CE7-variant26 (antibody, V domains shown)
VH: B12 VH
VL: B12 VL with S26N, Q27E, G28D, S52T, S56T
notes: CE7-1-2-VHD + CE7-1-NL1-VLB; human IgG1 kappa, L234A L235A P331S N297A (aglycosylated); also called humanized variant 26
